Source: patent US20160159928A1 (published 2016)

B1: VH1-69+CDR3-IL8 IgG (antibody)
VH: QVQLVQSGAEVKKPGSSVKVSCKASGGTFSSYAISWVRQAPGQGLEWMGGIIPIFGTANYAQKFQGRVTITADKSTSTAYMELSSLRSEDTAVYYCTSVHQETKKYQSPRSAKELRCQCIKTYSKPFHPKFIKELRVIESGPHCANTEIIVKLSDGRELCLDPKENWVQRVVEKFLKRAENSGSGSYTYNYEWHVDVWGQGLLVTVSSAS
light: not shown
notes: also called VH1-69 BLVCDR3IL8
B2: VH3-23+CDR3-IL8 IgG (antibody)
VH: EVQLLESGGGLVQPGGSLRLSCAASGFTFSSYAMSWVRQAPGKGLEWVSAISGSGGSTYYADSVKGRFTISRDNSKNTLYLQMNSLRAEDTAVYYCTSVHQETKKYQSPRSAKELRCQCIKTYSKPFHPKFIKELRVIESGPHCANTEIIVKLSDGRELCLDPKENWVQRVVEKFLKRAENSGSGSYTYNYEWHVDVWGQGLLVTVSSAS
light: not shown
notes: also called VH3-23 BLVCDR3IL8
B3: VH4-4+CDR3-IL8 IgG (antibody)
VH: QVQLQESGPGLVKPSETLSLTCTVSGGSISSYYWSWIRQPAGKGLEWIGRIYTSGSTNYNPSLKSRVTMSVDTSKNQFSLKLSSVTAADTAVYYCTSVHQETKKYQSPRSAKELRCQCIKTYSKPFHPKFIKELRVIESGPHCANTEIIVKLSDGRELCLDPKENWVQRVVEKFLKRAENSGSGSYTYNYEWHVDVWGQGLLVTVSSAS
light: not shown
notes: also called VH4-4 BLVCDR3IL8
B4: VH4-34+CDR3-IL8_CDR1 Cow IgG (BLV1H12 light chain) (antibody)
VH: QVQLQQWGAGLLKPSETLSLTCTASGFSLSDKAVGWIRQPPGKGLEWIGEINHSGSTNYNPSLKSRVTISVDTSKNQFSLKLSSVTAADTAVYYCTSVHQETKKYQSPRSAKELRCQCIKTYSKPFHPKFIKELRVIESGPHCANTEIIVKLSDGRELCLDPKENWVQRVVEKFLKRAENSGSGSYTYNYEWHVDVWGQGLLVTVSSAS
light: not shown
notes: also called VH4-34 + CDR3-IL8 + Cow CDR1
B5: VH4-34+CDR3-IL8_CDR1 G31D, Y32K IgG (BLV1H12 light chain) (antibody)
VH: QVQLQQWGAGLLKPSETLSLTCAVYGGSFSDKYWSWIRQPPGKGLEWIGEINHSGSTNYNPSLKSRVTISVDTSKNQFSLKLSSVTAADTAVYYCTSVHQETKKYQSPRSAKELRCQCIKTYSKPFHPKFIKELRVIESGPHCANTEIIVKLSDGRELCLDPKENWVQRVVEKFLKRAENSGSGSYTYNYEWHVDVWGQGLLVTVSSAS
light: not shown
notes: also called VH4-34 + CDR3-IL8 + E31D, Y32K
B6: VH4-34+CDR3-IL8_CDR1 Cow with light chain V1-51 CDR2 DNN to GDT (antibody)
VH: QVQLQQWGAGLLKPSETLSLTCTASGFSLSDKAVGWIRQPPGKGLEWIGEINHSGSTNYNPSLKSRVTISVDTSKNQFSLKLSSVTAADTAVYYCTSVHQETKKYQSPRSAKELRCQCIKTYSKPFHPKFIKELRVIESGPHCANTEIIVKLSDGRELCLDPKENWVQRVVEKFLKRAENSGSGSYTYNYEWHVDVWGQGLLVTVSSAS
light: QSVLTQPPSVSAAPGQKVTISCSGSSSNIGNNYVSWYQQLPGTAPKLLIYGDTKRPSGIPDRFSGSKSGTSATLGITGLQTGDEADYYCASAEDSSSNAVFGSGTTLTVLGQPKAAPSVTLFPPSSEELQANKATLVCLISDFYPGAVTVAWKADSSPVKAGVETTTPSKQSNNKYAASSYLSLTPEQWKSHRSYSCQVTHEGSTVEKTVAPTECS
B7: VH4-34+CDR3-IL8_CDR1 Cow with light chain V1-51 CDR1 I29V, N32G (antibody)
VH: QVQLQQWGAGLLKPSETLSLTCTASGFSLSDKAVGWIRQPPGKGLEWIGEINHSGSTNYNPSLKSRVTISVDTSKNQFSLKLSSVTAADTAVYYCTSVHQETKKYQSPRSAKELRCQCIKTYSKPFHPKFIKELRVIESGPHCANTEIIVKLSDGRELCLDPKENWVQRVVEKFLKRAENSGSGSYTYNYEWHVDVWGQGLLVTVSSAS
light: QSVLTQPPSVSAAPGQKVTISCSGSSSNVGNGYVSWYQQLPGTAPKLLIYDNNKRPSGIPDRFSGSKSGTSATLGITGLQTGDEADYYCASAEDSSSNAVFGSGTTLTVLGQPKAAPSVTLFPPSSEELQANKATLVCLISDFYPGAVTVAWKADSSPVKAGVETTTPSKQSNNKYAASSYLSLTPEQWKSHRSYSCQVTHEGSTVEKTVAPTECS
B8: VH4-34+CDR3-IL8_CDR1 Cow with light chain V1-51 CDR2 DNNKRP to GDTSRA (antibody)
VH: QVQLQQWGAGLLKPSETLSLTCTASGFSLSDKAVGWIRQPPGKGLEWIGEINHSGSTNYNPSLKSRVTISVDTSKNQFSLKLSSVTAADTAVYYCTSVHQETKKYQSPRSAKELRCQCIKTYSKPFHPKFIKELRVIESGPHCANTEIIVKLSDGRELCLDPKENWVQRVVEKFLKRAENSGSGSYTYNYEWHVDVWGQGLLVTVSSAS
light: QSVLTQPPSVSAAPGQKVTISCSGSSSNIGNNYVSWYQQLPGTAPKLLIYGDTSRASGIPDRFSGSKSGTSATLGITGLQTGDEADYYCASAEDSSSNAVFGSGTTLTVLGQPKAAPSVTLFPPSSEELQANKATLVCLISDFYPGAVTVAWKADSSPVKAGVETTTPSKQSNNKYAASSYLSLTPEQWKSHRSYSCQVTHEGSTVEKTVAPTECS
B9: VH4-34+CDR3-IL8_CDR1 Cow with light chain V1-51 S2A, T5N, P8S, A12G, A13S, P14L (antibody)
VH: QVQLQQWGAGLLKPSETLSLTCTASGFSLSDKAVGWIRQPPGKGLEWIGEINHSGSTNYNPSLKSRVTISVDTSKNQFSLKLSSVTAADTAVYYCTSVHQETKKYQSPRSAKELRCQCIKTYSKPFHPKFIKELRVIESGPHCANTEIIVKLSDGRELCLDPKENWVQRVVEKFLKRAENSGSGSYTYNYEWHVDVWGQGLLVTVSSAS
light: QAVLNQPSSVSGSLGQKVTISCSGSSSNIGNNYVSWYQQLPGTAPKLLIYDNNKRPSGIPDRFSGSKSGTSATLGITGLQTGDEADYYCASAEDSSSNAVFGSGTTLTVLGQPKAAPSVTLFPPSSEELQANKATLVCLISDFYPGAVTVAWKADSSPVKAGVETTTPSKQSNNKYAASSYLSLTPEQWKSHRSYSCQVTHEGSTVEKTVAPTECS
notes: also called BID 34
B10: VH4-34+CDR3-IL8_CDR1 Cow with light chain V1-51 S2A, T5N, P8S, A12G, A13S, P14L & DNN to GDT (antibody)
VH: QVQLQQWGAGLLKPSETLSLTCTASGFSLSDKAVGWIRQPPGKGLEWIGEINHSGSTNYNPSLKSRVTISVDTSKNQFSLKLSSVTAADTAVYYCTSVHQETKKYQSPRSAKELRCQCIKTYSKPFHPKFIKELRVIESGPHCANTEIIVKLSDGRELCLDPKENWVQRVVEKFLKRAENSGSGSYTYNYEWHVDVWGQGLLVTVSSAS
light: QAVLNQPSSVSGSLGQKVTISCSGSSSNIGNNYVSWYQQLPGTAPKLLIYGDTKRPSGIPDRFSGSKSGTSATLGITGLQTGDEADYYCASAEDSSSNAVFGSGTTLTVLGQPKAAPSVTLFPPSSEELQANKATLVCLISDFYPGAVTVAWKADSSPVKAGVETTTPSKQSNNKYAASSYLSLTPEQWKSHRSYSCQVTHEGSTVEKTVAPTECS
B11: VH4-34+CDR3-IL8_CDR1 Cow_CDR2 Cow with light chain V1-51 CDR1 I29V, N32G (antibody)
VH: QVQLQQWGAGLLKPSETLSLTCTASGFSLSDKAVGWIRQPPGKGLEWLGSIDTGGNTGYNPSLKSRVTISVDTSKNQFSLKLSSVTAADTAVYYCTSVHQETKKYQSPRSAKELRCQCIKTYSKPFHPKFIKELRVIESGPHCANTEIIVKLSDGRELCLDPKENWVQRVVEKFLKRAENSGSGSYTYNYEWHVDVWGQGLLVTVSSAS
light: QSVLTQPPSVSAAPGQKVTISCSGSSSNVGNGYVSWYQQLPGTAPKLLIYDNNKRPSGIPDRFSGSKSGTSATLGITGLQTGDEADYYCASAEDSSSNAVFGSGTTLTVLGQPKAAPSVTLFPPSSEELQANKATLVCLISDFYPGAVTVAWKADSSPVKAGVETTTPSKQSNNKYAASSYLSLTPEQWKSHRSYSCQVTHEGSTVEKTVAPTECS
B12: VH4-34+CDR3-IL8_CDR1 Cow_CDR2 Cow with light chain V1-51 CDR2 DNN to GDT (antibody)
VH: QVQLQQWGAGLLKPSETLSLTCTASGFSLSDKAVGWIRQPPGKGLEWLGSIDTGGNTGYNPSLKSRVTISVDTSKNQFSLKLSSVTAADTAVYYCTSVHQETKKYQSPRSAKELRCQCIKTYSKPFHPKFIKELRVIESGPHCANTEIIVKLSDGRELCLDPKENWVQRVVEKFLKRAENSGSGSYTYNYEWHVDVWGQGLLVTVSSAS
light: QSVLTQPPSVSAAPGQKVTISCSGSSSNIGNNYVSWYQQLPGTAPKLLIYGDTKRPSGIPDRFSGSKSGTSATLGITGLQTGDEADYYCASAEDSSSNAVFGSGTTLTVLGQPKAAPSVTLFPPSSEELQANKATLVCLISDFYPGAVTVAWKADSSPVKAGVETTTPSKQSNNKYAASSYLSLTPEQWKSHRSYSCQVTHEGSTVEKTVAPTECS
B13: VH4-34+CDR3-IL8_CDR1 Cow_CDR2 Cow with light chain V1-51 CDR2 DNNKRP to GDTSRA (antibody)
VH: QVQLQQWGAGLLKPSETLSLTCTASGFSLSDKAVGWIRQPPGKGLEWLGSIDTGGNTGYNPSLKSRVTISVDTSKNQFSLKLSSVTAADTAVYYCTSVHQETKKYQSPRSAKELRCQCIKTYSKPFHPKFIKELRVIESGPHCANTEIIVKLSDGRELCLDPKENWVQRVVEKFLKRAENSGSGSYTYNYEWHVDVWGQGLLVTVSSAS
light: QSVLTQPPSVSAAPGQKVTISCSGSSSNIGNNYVSWYQQLPGTAPKLLIYGDTSRASGIPDRFSGSKSGTSATLGITGLQTGDEADYYCASAEDSSSNAVFGSGTTLTVLGQPKAAPSVTLFPPSSEELQANKATLVCLISDFYPGAVTVAWKADSSPVKAGVETTTPSKQSNNKYAASSYLSLTPEQWKSHRSYSCQVTHEGSTVEKTVAPTECS
B14: VH4-34+CDR3-IL8_CDR1 Cow_CDR2 Cow with light chain V1-51 S2A, T5N, P8S, A12G, A13S, P14L (antibody)
VH: QVQLQQWGAGLLKPSETLSLTCTASGFSLSDKAVGWIRQPPGKGLEWLGSIDTGGNTGYNPSLKSRVTISVDTSKNQFSLKLSSVTAADTAVYYCTSVHQETKKYQSPRSAKELRCQCIKTYSKPFHPKFIKELRVIESGPHCANTEIIVKLSDGRELCLDPKENWVQRVVEKFLKRAENSGSGSYTYNYEWHVDVWGQGLLVTVSSAS
light: QAVLNQPSSVSGSLGQKVTISCSGSSSNIGNNYVSWYQQLPGTAPKLLIYDNNKRPSGIPDRFSGSKSGTSATLGITGLQTGDEADYYCASAEDSSSNAVFGSGTTLTVLGQPKAAPSVTLFPPSSEELQANKATLVCLISDFYPGAVTVAWKADSSPVKAGVETTTPSKQSNNKYAASSYLSLTPEQWKSHRSYSCQVTHEGSTVEKTVAPTECS
notes: also called BID 36; VH4-34 MutB IL-8 CDR1cow CDR2cow

Each binder was assayed against T1, CXCR1 (UniProt P25024 1-350, limits assumed) (assay: flow cytometry; fluorescence on CXCR1-U2OS over parental U2OS cells).
T1 construct: whole, on cells; also called CXCR1 receptor; CXCR1-U2OS
T1 sequence (looked up): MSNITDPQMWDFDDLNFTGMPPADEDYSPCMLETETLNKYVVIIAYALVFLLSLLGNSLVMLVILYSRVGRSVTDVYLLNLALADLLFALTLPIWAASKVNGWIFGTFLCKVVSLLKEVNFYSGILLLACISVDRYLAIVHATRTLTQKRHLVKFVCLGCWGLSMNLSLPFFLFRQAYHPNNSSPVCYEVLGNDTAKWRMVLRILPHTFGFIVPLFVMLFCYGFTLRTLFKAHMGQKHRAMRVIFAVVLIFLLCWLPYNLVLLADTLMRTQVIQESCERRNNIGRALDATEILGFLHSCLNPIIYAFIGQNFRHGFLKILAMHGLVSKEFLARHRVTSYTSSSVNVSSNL
Procedure: (§1) Briefly, a cell line expressing functionally validated CXCR1 derived from U2OS cells was obtained from DiscoveRx and cultured per manufacturer's instructions (Cat#93-0226C3, DiscoveRx Corporation, Freemont, Calif.). The parental cell line U2OS was obtained from ATCC and cultured under the same conditions as the CXCR1 cells. Cell culture supernatants were then tested for binding to cells by flow cytometry. The adherent U2OS or CXCR1-U2OS cells were dissociated with Accutase (Innovative Cell Technologies, Inc., San Diego, Calif.), neutralized with an equal volume of media containing 10% serum, centrifuged at 1000 g, and resuspended in PBS with 2% BSA. Next, cells were dispensed into microtiter plates to achieve between 30,000 to 300,000 cells per well, centrifuged again, and resuspended in cell culture supernatant containing expressed IgG, or a dilution of IgG-containing cell culture supernatant. A fluorescent-conjugated anti-Human Fc antibody was used to detect binding of the expressed antibody to cells.

Compared with B1, B2 is lower in “Ratio of CXCR1/Parental” value: 4 for the first, 2.7 for the second.

In the case of B3, the “Ratio of CXCR1/Parental” value is reported as 3.1.

Target: T1, CXCR1
Assay: as above
Remark: another data set of the same source
Procedure: as §1

Going from B4 to B5, the “FACS CXCR1/Parental Ratio” value rises from 2.1 to 8.1.

These binders were tested against T1, CXCR1 (assay: flow cytometry, IgG 10 nM, 2% BSA in PBS plus 2 ug/ml heparin sulfate).
Procedure: Transfections and ELISA were carried out as described above, and flow cytometry was used to evaluate CXCR1 binding specificity as previously described, with the modification that cells were resuspended in 2% BSA in PBS plus 2 ug/ml Heparin sulfate, and IgGs were normalized to 10 nM during incubation on cells.

Compared with B6, B7 is higher in “CXCR1 specificity (CXCR1/parental ratio)” value: 5.6 for the first, 8.9 for the second.

Compared with B8, B9 is lower in “CXCR1 specificity (CXCR1/parental ratio)” value: 8 for the first, 4.7 for the second.

Going from B10 to B11, the “CXCR1 specificity (CXCR1/parental ratio)” value rises from 6.8 to 11.8.

Compared with B12, B13 is lower in “CXCR1 specificity (CXCR1/parental ratio)” value: 16.7 for the first, 6.9 for the second.

For B14, the “CXCR1 specificity (CXCR1/parental ratio)” value was 12.2.
